No end group written: not given here.
Legend:
[1] = biological target: adrenomedullin receptors in the lungs of dogs (binding profile of the AM1 receptor, CRLR+RAMP2) (dog); assay: cell-based or functional assay
[2] = biological target: adrenomedullin receptors in the lungs of dogs (binding profile of the AM1 receptor, CRLR+RAMP2) (dog); assay: displacement of iodine-marked hAM in dog lungs

Molecule | IC50 [2] | further results
125I-rAM(1-50), 125I labelled rat adrenomedullin (from UniProt P43145 94-143) (peptide) | – | mean single-pass pulmonary extraction of 125I-rAM(1-50) in dogs in vivo (indicator dilution), baseline [1]: 36.4%
CGRP (Phoenix Pharmaceuticals) (peptide) | – | mean single-pass pulmonary extraction of 125I-rAM(1-50) in dogs after CGRP (100 nmol) [1]: 40.6%; mean single-pass pulmonary extraction of 125I-rAM(1-50) in dogs, control before CGRP [1]: 44.6%
N-terminal acetylated human adrenomedullin (peptide) | 0.041 nM | –
hCGRP (from UniProt P06881 83-119) (peptide) | 440 nM | –
human adrenomedullin hAM(1-52), cyclic (peptide) | 0.055 nM | –
linear human adrenomedullin hAM(1-52) (peptide) | 7.1 nM | –
unlabelled rAM(1-50) (from UniProt P43145 94-143) (peptide) | – | mean single-pass pulmonary extraction of 125I-rAM(1-50) in dogs after administration of unlabelled rAM(1-50) (100 nmol) [1]: 21.9%
QVQNLSHRLWQLMGPAGRQDSAPVDPSSPHSY (peptide, UniProt Q7Z4H4 116-147, looked up, ends and bridges not checked) [hAM2(16-47)] | 980 nM | –
SFGCRFGTCTVQKLAHQIYQFTDKDKDNVAPRSKISPQGY-NH2 (ends and bridges not checked) [hAM(13-52)] | 34 nM | –
TQAQLLRVGCVLGTCQVQNLSHRLWQLMGPAGRQDSAPVDPSSPHSY (peptide, UniProt Q7Z4H4 101-147, looked up) [hAM2] | 480 nM | –
TVQKLAHQIYQFTDKDKDNVAPRSKISPQGY-NH2 [hAM(22-52)] | 810 nM | mean single-pass pulmonary extraction of 125I-rAM(1-50) in dogs after hAM(22-52) (100 nmol) [1]: 31.4%; mean single-pass pulmonary extraction of 125I-rAM(1-50) in dogs before hAM(22-52) [1]: 40%

— patent EP2155781B1
